# Reference: paper PMC9398005, “A Drosophila Su(H) model of Adams-Oliver Syndrome reveals cofactor titration as a mechanism underlying developmental defects”
# Tests used:
# Rbpj WT (core) [1] = biological target: T1, Rbpj WT (core) (mouse, UniProt P31266 53-474); test: EMSA; ITC: 50 mM sodium phosphate, 150 mM NaCl, 10 C (pH not stated); EMSA purified: 3.4 nM probe, 10 min room temperature; EMSA IVT: 10 mM Tris-HCl pH 7.5, 100 mM NaCl, 0.1 mM EDTA, 0.5 mM DTT, 4% glycerol, poly(dI-dC); conditions: protein: recombinant; tags: GST removed by PreScission (pGEX-6P1); label: IRDye-700 at 5' end of strand 2; blunt
# Rbpj WT (core) [2] = biological target: T1, Rbpj WT (core); test: ITC; 10 C; ITC: 50 mM sodium phosphate, 150 mM NaCl, 10 C (pH not stated); EMSA purified: 3.4 nM probe, 10 min room temperature; EMSA IVT: 10 mM Tris-HCl pH 7.5, 100 mM NaCl, 0.1 mM EDTA, 0.5 mM DTT, 4% glycerol, poly(dI-dC); conditions: protein: recombinant; tags: GST removed by PreScission (pGEX-6P1); blunt
# Rbpj E89G = Rbpj E89G (mouse, UniProt P31266 53-474, E89G); test: as above; conditions: protein: recombinant; tags: GST removed by PreScission (pGEX-6P1); blunt
# Rbpj K195E = Rbpj K195E (mouse, UniProt P31266 53-474, K195E); test: as above; conditions: protein: recombinant; tags: GST removed by PreScission (pGEX-6P1); blunt
# Flag-Rbpj WT full length = Flag-Rbpj WT full length (mouse, UniProt P31266 1-526); test: EMSA; poly(dI-dC); single and double occupancy; anti-Flag supershift; ITC: 50 mM sodium phosphate, 150 mM NaCl, 10 C (pH not stated); EMSA purified: 3.4 nM probe, 10 min room temperature; EMSA IVT: 10 mM Tris-HCl pH 7.5, 100 mM NaCl, 0.1 mM EDTA, 0.5 mM DTT, 4% glycerol, poly(dI-dC); conditions: protein: ivt; tags: Flag; label: 32P; 5' overhang 4 nt both ends
# Flag-Rbpj WT full length, sequence (P31266 whole entry): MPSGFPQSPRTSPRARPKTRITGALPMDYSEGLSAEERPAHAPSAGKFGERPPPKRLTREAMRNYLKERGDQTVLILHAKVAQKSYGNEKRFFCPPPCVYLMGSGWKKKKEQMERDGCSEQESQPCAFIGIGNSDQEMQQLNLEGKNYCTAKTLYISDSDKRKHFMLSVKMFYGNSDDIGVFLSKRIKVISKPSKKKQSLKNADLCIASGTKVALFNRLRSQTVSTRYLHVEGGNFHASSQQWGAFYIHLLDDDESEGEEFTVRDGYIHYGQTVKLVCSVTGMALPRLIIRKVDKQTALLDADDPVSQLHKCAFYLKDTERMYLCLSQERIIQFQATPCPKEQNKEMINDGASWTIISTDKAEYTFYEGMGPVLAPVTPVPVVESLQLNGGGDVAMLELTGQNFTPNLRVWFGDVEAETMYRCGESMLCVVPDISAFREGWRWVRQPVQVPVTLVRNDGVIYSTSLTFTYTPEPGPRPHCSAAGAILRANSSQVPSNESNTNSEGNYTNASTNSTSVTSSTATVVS
# T1 sequence (P31266 53-474): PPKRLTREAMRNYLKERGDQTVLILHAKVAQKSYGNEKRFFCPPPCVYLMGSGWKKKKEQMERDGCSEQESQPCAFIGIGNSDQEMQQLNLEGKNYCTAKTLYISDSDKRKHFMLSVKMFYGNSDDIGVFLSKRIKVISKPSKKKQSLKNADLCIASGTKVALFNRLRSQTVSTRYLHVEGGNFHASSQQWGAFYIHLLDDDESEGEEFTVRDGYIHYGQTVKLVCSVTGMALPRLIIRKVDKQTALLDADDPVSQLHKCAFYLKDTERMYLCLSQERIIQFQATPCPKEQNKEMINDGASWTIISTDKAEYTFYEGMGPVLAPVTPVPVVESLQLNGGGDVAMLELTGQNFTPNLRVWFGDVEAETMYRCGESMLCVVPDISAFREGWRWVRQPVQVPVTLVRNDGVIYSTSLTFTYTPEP
# Rbpj K195E, sequence (P31266 53-474 K195E): as the sequence (P31266 53-474) above, with K143E counted along it
# Rbpj E89G, sequence (P31266 53-474 E89G): as the sequence (P31266 53-474) above, with E37G counted along it
binder,measurement,setting,value
EMSA high affinity CSL probe (dsDNA) DNA 1: CGAACGAGGCAAACCTAGGCTAGAGGCACCGTGGGAAACTAGTGCGGGCGTGGCT DNA 2: AGCCACGCCCGCACTAGTTTCCCACGGTGCCTCTAGCCTAGGTTTGCCTCGTTCG,binding result,Rbpj WT (core) [1],binds
ITC 20-mer CSL duplex (dsDNA) DNA 1: GGCACCGTGGGAAACTAGTG DNA 2: CACTAGTTTCCCACGGTGCC,Kd,Rbpj WT (core) [2],74 ± 10.8 nM
same,Kd,Rbpj E89G,440 ± 86.8 nM
same,Kd,Rbpj K195E,1160 ± 258 nM
EMSA probe with 2 RBPJ sites (dsDNA) DNA 1: CCTGGAACTATTTTCCCACGGTGCCCTTCCGCCCATTTTCCCACGAGTCG DNA 2: CTCGCGACTCGTGGGAAAATGGGCGGAAGGGCACCGTGGGAAAATAGTTC,binding result,Flag-Rbpj WT full length,binds
